Article doi:10.1101/434902 (bioRxiv, 2018)
Positions count from the first letter of the chain named. Names may count otherwise. Like-named read-outs stand apart in the source and are kept apart here. One block for each binder: values may come before it.

Assays:
Experiment in all cases: cryo-EM structure
cryo-EM structure [1] = molecular target: the molecule itself
cryo-EM structure [2] = molecular target: the molecule itself; remark: listed apart in the source
bovine calmodulin = bovine calmodulin (bovine, UniProt P62157 1-149)

B1: rabbit TRPV5 with a C-terminal truncation (1-660) (domain or fragment)
chain: MGACPPKAKGPWAQLQKLLISWPVGEQDWEQYRDRVNMLQQERIRDSPLLQAAKENDLRLLKILLLNQSCDFQQRGAVGETALHVAALYDNLEAATLLMEAAPELAKEPALCEPFVGQTALHIAVMNQNLNLVRALLARGASVSARATGAAFRRSPHNLIYYGEHPLSFAACVGSEEIVRLLIEHGADIRAQDSLGNTVLHILILQPNKTFACQMYNLLLSYDEHSDHLQSLELVPNHQGLTPFKLAGVEGNTVMFQHLMQKRKHVQWTCGPLTSTLYDLTEIDSWGEELSFLELVVSSKKREARQILEQTPVKELVSFKWKKYGRPYFCVLASLYILYMICFTTCCIYRPLKLRDDNRTDPRDITILQQKLLQEAYVTHQDNIRLVGELVTVTGAVIILLLEIPDIFRVGASRYFGQTILGGPFHVIIITYASLVLLTMVMRLTNMNGEVVPLSFALVLGWCSVMYFARGFQMLGPFTIMIQKMIFGDLMRFCWLMAVVILGFASAFHITFQTEDPNNLGEFSDYPTALFSTFELFLTIIDGPANYSVDLPFMYCITYAAFAIIATLLMLNLFIAMMGDTHWRVAQERDELWRAQVVATTVMLERKMPRFLWPRSGICGYEYGLGDRWFLRVENHHDQNPLRVLRYVEAFKCSDKEDGQ
stoichiometry N (cryo-EM structure [1]): 4

binding result (bovine calmodulin): binds
B2: rabbit TRPV5 full length channel (1-730) (natural protein)
chain: MGACPPKAKGPWAQLQKLLISWPVGEQDWEQYRDRVNMLQQERIRDSPLLQAAKENDLRLLKILLLNQSCDFQQRGAVGETALHVAALYDNLEAATLLMEAAPELAKEPALCEPFVGQTALHIAVMNQNLNLVRALLARGASVSARATGAAFRRSPHNLIYYGEHPLSFAACVGSEEIVRLLIEHGADIRAQDSLGNTVLHILILQPNKTFACQMYNLLLSYDEHSDHLQSLELVPNHQGLTPFKLAGVEGNTVMFQHLMQKRKHVQWTCGPLTSTLYDLTEIDSWGEELSFLELVVSSKKREARQILEQTPVKELVSFKWKKYGRPYFCVLASLYILYMICFTTCCIYRPLKLRDDNRTDPRDITILQQKLLQEAYVTHQDNIRLVGELVTVTGAVIILLLEIPDIFRVGASRYFGQTILGGPFHVIIITYASLVLLTMVMRLTNMNGEVVPLSFALVLGWCSVMYFARGFQMLGPFTIMIQKMIFGDLMRFCWLMAVVILGFASAFHITFQTEDPNNLGEFSDYPTALFSTFELFLTIIDGPANYSVDLPFMYCITYAAFAIIATLLMLNLFIAMMGDTHWRVAQERDELWRAQVVATTVMLERKMPRFLWPRSGICGYEYGLGDRWFLRVENHHDQNPLRVLRYVEAFKCSDKEDGQEQLSEKRPSTVESGMLSRASVAFQTPSLSRTTSQSSNSHRGWEILRRNTLGHLNLGLDLGEGDGEEVYHF
stoichiometry N (cryo-EM structure [2]): 4

B3: full length TRPV5 with a W583A point mutation (natural protein)
chain: B2 chain with W583A
stoichiometry N (cryo-EM structure [1]): 4
